{
  "source": "paper PMC7189753",
  "molecular_target": "ChuX",
  "test": "AUC",
  "data": [
    {"substance": "ChuX (natural protein)", "values": [
      {"measurement": "percent of the sample as dimer (2.9 S species)", "result": 81.3, "unit": "%"},
      {"measurement": "percent of the sample as tetramer (4.5 S species)", "result": 10.8, "unit": "%"}
    ]}
  ]
}
